Ends that are not written are not given here. * marks the point of attachment. Biotin = O=C1N[C@H]2[C@H](CS[C@H]2CCCCC(=O)*)N1
Biological target: T1, GST-EBP50 (ERM-binding phosphoprotein 50 kD) (human, UniProt O14745 1-358)
T1 sequence (looked up): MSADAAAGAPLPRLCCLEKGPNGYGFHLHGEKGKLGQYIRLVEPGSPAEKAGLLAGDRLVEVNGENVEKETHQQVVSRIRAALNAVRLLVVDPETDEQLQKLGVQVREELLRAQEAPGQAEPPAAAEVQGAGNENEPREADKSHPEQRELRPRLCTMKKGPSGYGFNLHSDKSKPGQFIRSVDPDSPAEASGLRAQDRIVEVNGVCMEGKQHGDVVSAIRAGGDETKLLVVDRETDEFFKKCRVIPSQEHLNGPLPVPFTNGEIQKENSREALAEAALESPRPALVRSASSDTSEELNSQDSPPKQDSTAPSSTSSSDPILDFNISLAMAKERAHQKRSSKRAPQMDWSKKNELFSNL
Test: pull-down

binding result: binds
Binder: Biotin-SGSGTEEEVQDTRL [CFTRwt peptide (COOH-terminal 10 amino acids of human CFTR)]
